To fix the notation:
B1: σ1 of reovirus strain rsT3D-σ1T249I (parent), on purified virions [mammalian orthoreovirus, strain type 3 Dearing GST-JAM-A ectodomain fusion protein [not stated] (parent)
chain 1: MDPRLREEVVRLIIALTSDNGASLSKGLESRVSALEKTSQIHSDTILRITQGLDDANKRIIALEQSRDDLVASVSDAQLAISRLESSIGALQTVVNGLDSSVTQLGARVGQLETGLAELRVDHDNLVARVDTAERNIGSLTTELSTLTLRVTSIQADFESRISTLERTAVTSAGAPLSIRNNRMTMGLNDGLTLSGNNLAIRLPGNTGLNIQNGGLQFRFNTDQFQIVNNNLTLKTTVFDSINSRIGAIEQSYVASAVTPLRLNSSTKVLDMLIDSSTLEINSSGQLTVRSTSPNLRYPIADVSGGIGMSPNYRFRQSMWIGIVSYSGSGLNWRVQVNSDIFIVDDYIHICLPAFDGFSIADGGDLSLNFVTGLLPPLLTGDTEPAFHNDVVTYGAQTVAIGLSSGGAPQYMSKNLWVEQWQDGVLRLRVEGGGSITHSNSKWPAMTVSYPRSFT
chain 2: SVTVHSSEPEVRIPENNPVKLSCAYSGFSSPRVEWKFDQGDTTRLVCYNNKITASYEDRVTFLPTGITFKSVTREDTGTYTCMVSEEGGNSYGEVKVKLIVLVPPSKPTVNIPSSATIGNRAVLTCSEQDGSPPSEYTWFKDGIVMPTNPKSTRAFSNSSYVLNPTTGELVFDPLSASDTGEYSCEARNGYGTPMTSNAVRMEAVERNVGV

In the assay the parent is B1. Kind of assay: SPR. To be noted: with GST-JAM-A ectodomain fusion protein, GST-JAM-A captured on biosensor surface, read off a plot.
The mark [1] stands for this setting: 6×1012 (green) particles/ml virus, parent: 62.
[2] abbreviates: 8×1012 (orange) particles/ml virus, parent: 98.
Where [3] appears, read: 1013 (red) particles/ml virus, parent: 205.

For chain 1 G381A, the response is 17 RU under setting [1], 28 RU under setting [2] and 36 RU under setting [3].
In the same order, the values of chain 1 E384A are 140 RU, 280 RU and 460 RU.

The values above are taken from paper PMC2588538, “Structure of Reovirus σ1 in Complex with Its Receptor Junctional Adhesion Molecule-A” (PLoS Pathogens, 2008).
